PMC3680381

Key:
[1] = molecular target: Pf-WRS catalytic domain (aminoacylation and anticodon binding domains) (Plasmodium falciparum); assay: SEC; gel filtration on Superdex200, 20 mM Tris, 100 mM NaCl, pH 7.5; oligomeric state from migration against markers (BSA, DTD)
[2] = molecular target: Plasmodium falciparum cytoplasmic tryptophanyl-tRNA synthetase, full length (Plasmodium falciparum); assay: as above

| Substance | stoichiometry N [1] | stoichiometry N [2] |
| --- | --- | --- |
| Pf-WRS catalytic domain (aminoacylation and anticodon binding domains) (domain or fragment) | 2 | – |
| Plasmodium falciparum cytoplasmic tryptophanyl-tRNA synthetase, full length (enzyme) | – | 2 |
